In paper PMC8881611, “A mechanism of origin licensing control through autoinhibition of S. cerevisiae ORC·DNA·Cdc6” (Nature Communications, 2022):

Legend:
[1] = molecular target: T1, ScORC·DNA·Cdc6 with MBP-tagged ORC holding Orc6 ΔCBN/Δlinker (Orc6Δ1-269), ORC dephosphorylated with λ … (S. cerevisiae, UniProt P54784 1-914; P32833 1-620; P54790 1-616; P54791 1-529; P50874 1-479; P38826 …, ORC treated with λ phosphatase); assay: pull-down; amylose pulldown, ORC with MBP-tagged Orc4 as bait; 0.5 uM ScORC, 0.5 uM 84 bp ARS1 dsDNA, 1 uM ScCdc6, 10 uM ScMcm7 (titrations 1.5, 5, 10 uM), 2 mM ATPγS; 25 mM HEPES pH 7.5, 300 mM potassium acetate, 10 mM magnesium acetate, 1 mM DTT; on ice; maltose elution, Coomassie-stained SDS-PAGE; conditions: both partners purified
T1 construct: Orc1, S. cerevisiae, wild type; Orc2, S. cerevisiae, wild type; Orc3, S. cerevisiae, wild type; Orc4, S. cerevisiae, wild type; Orc5, S. cerevisiae, wild type; Orc6, S. cerevisiae, truncation Orc6Δ1-269 (lacks the N-terminal cyclin box fold and the flexible linker); Cdc6, S. cerevisiae, wild type; ORC dephosphorylated before assembly with DNA, Cdc6 and ATPγS; also called Orc6 ΔCBN/Δlinker, λ …

[2] = molecular target: T2, ScORC·DNA·Cdc6 with MBP-tagged ORC holding Orc6 ΔCBN (Orc6Δ1-120), ORC untreated (S. cerevisiae, UniProt P54784 1-914; P32833 1-620; P54790 1-616; P54791 1-529; P50874 1-479; P38826 …); assay: as above; conditions: both partners purified
T2 construct: Orc1, S. cerevisiae, wild type; Orc2, S. cerevisiae, wild type; Orc3, S. cerevisiae, wild type; Orc4, S. cerevisiae, wild type; Orc5, S. cerevisiae, wild type; Orc6, S. cerevisiae, truncation Orc6Δ1-120 (lacks the N-terminal cyclin box fold); Cdc6, S. cerevisiae, wild type; The unstructured linker region of Orc6ΔCBN is prone to proteolytic cleavage during expression and purification; also called …

B1: S. cerevisiae Mcm7 (ScMcm7) (natural protein, UniProt P38132 1-845, looked up)
chain: MSAALPSIQLPVDYNNLFNEITDFLVTFKQDTLSSDATRNENEDENLDAENIEQHLLEKGPKYMAMLQKVANRELNSVIIDLDDILQYQNEKFLQGTQADDLVSAIQQNANHFTELFCRAIDNNMPLPTKEIDYKDDVLDVILNQRRLRNERMLSDRTNEIRSENLMDTTMDPPSSMNDALREVVEDETELFPPNLTRRYFLYFKPLSQNCARRYRKKAISSKPLSVRQIKGDFLGQLITVRGIITRVSDVKPAVEVIAYTCDQCGYEVFQEVNSRTFTPLSECTSEECSQNQTKGQLFMSTRASKFSAFQECKIQELSQQVPVGHIPRSLNIHVNGTLVRSLSPGDIVDVTGIFLPAPYTGFKALKAGLLTETYLEAQFVRQHKKKFASFSLTSDVEERVMELITSGDVYNRLAKSIAPEIYGNLDVKKALLLLLVGGVDKRVGDGMKIRGDINVCLMGDPGVAKSQLLKAICKISPRGVYTTGKGSSGVGLTAAVMKDPVTDEMILEGGALVLADNGICCIDEFDKMDESDRTAIHEVMEQQTISISKAGINTTLNARTSILAAANPLYGRYNPRLSPLDNINLPAALLSRFDILFLMLDIPSRDDDEKLAEHVTYVHMHNKQPDLDFTPVEPSKMREYIAYAKTKRPVMSEAVNDYVVQAYIRLRQDSKREMDSKFSFGQATPRTLLGIIRLSQALAKLRLADMVDIDDVEEALRLVRVSKESLYQETNKSKEDESPTTKIFTIIKKMLQETGKNTLSYENIVKTVRLRGFTMLQLSNCIQEYSYLNVWHLINEGNTLKFVDDGTMDTDQEDSLVSTPKLAPQTTASANVSAQDSDIDLQDA
notes: Mcm7, S. cerevisiae; migrates as a doublet on SDS-PAGE; source: E. coli BL21 RIL, purified (HisTrap, amylose, TEV cleavage, HisTrap, gel filtration); not shown: His6, N-terminal, cleaved; MBP, N-terminal, cleaved
- binding result [1]: binds
- binding result [2]: binds
